The values below come from article PMC3097226.

Series [1] can be described thus: confocal microscopy, stable HeLa lines. As to conditions: glycan lost; control: WT CD95.
Series [2] can be described thus: high molecular weight CD95 complexes after anti-APO-1, Western blot. As to conditions: glycan lost; control: WT CD95. For orientation: Immunoblotting shows a protein as a band on a membrane.
Series [3] in a line: anti-APO-1 surface staining (flow cytometry), transient HeLa. As to conditions: glycan lost; control: WT CD95.
Series [4] is described as follows: cycloheximide chase, Western blot, HEK293T. As to conditions: glycan lost; control: WT CD95.
The nature of series [5]: anti-APO-1 surface staining, flow cytometry. As to conditions: glycan changed form; control: untreated SKW6.4 cells.

B1: CD95 (Fas/APO-1): N118Q (protein)
parent chain: MLGIWTLLPLVLTSVARLSSKSVNAQVTDINSKGLELRKTVTTVETQNLEGLHHDGQFCHKPCPPGERKARDCTVNGDEPDCVPCQEGKEYTDKAHFSSKCRRCRLCDEGHGLEVEINCTRTQNTKCRCKPNFFCNSTVCEHCDPCTKCEHGIIKECTLTSNTKCKEEGSRSNLGWLCLLLLPIPLIVWVKRKEVQKTCRKHRKENQGSHESPTLNPETVAINLSDVDLSKYITTIAGVMTLSQVKGFVRKNGVNEAKIDEIKNDNVQDTAEQKVQLLRNWHQLHGKKEAYDTLIKDLKKANLCTLAEKIQTIILKDITSDSENSNFRNEIQSLV
With B1, the localisation_or_trafficking result in series [1] and in series [3] was “no change” throughout. In addition, the oligomerisation result in series [2] was “no change”. In series [4], the degradation_or_half_life result is recorded as “no change”.

B2: CD95 (Fas/APO-1): DMM (protein)
parent chain: B1 parent chain
Regarding B2, the localisation_or_trafficking result in series [5] is given as “no change”.

B3: CD95 (Fas/APO-1): N136Q (protein)
parent chain: B1 parent chain
Take B3: the localisation_or_trafficking result in series [1] and in series [3] was “no change” each time. Further, the oligomerisation entry in series [2] is on record as “no change”. In series [4], the degradation_or_half_life entry is “no change”.

B4: CD95 (Fas/APO-1): N118Q/N136Q (protein)
parent chain: B1 parent chain
Consider B4, for which the oligomerisation entry in series [2] was “no change”. In addition, in series [4], the degradation_or_half_life result is “no change”.

B5: CD95 (Fas/APO-1): VCN (protein)
parent chain: B1 parent chain
For B5, the localisation_or_trafficking entry in series [5] was “no change”.
